The source of these data is patent publication US20240400717A1, “Antibody Binding to CHI3L1 for Treating Cancer” (National Cheng Kung University, priority 2021, published 2024).

Sequences and labels used below:
B1: #293R3-5: fully human anti-CHI3L1 mAb, Table 1 No. 5; heavy chain SEQ ID NO: 81, light chain SEQ ID NO: 82 (antibody, listed as Homo sapiens)
VH: EVQLVQSGAGVKKPGATVKISCKVSGYTFTDYYMHWVQQAPGKGLEWMGLVDPEDGETIYAEKFQGRVTITADTSTDTAYMELSSLRSEDTAVYYCATASPREEMPYYFDYWGQGTLVTVSS
light: SYELTQPPSVSVSPGQTASITCSGDILADQYASWYQQKPGQSPVLVIYHDTKRPSGVPERFSGSTSGNTATLTISGTQAMDEAAYYCQAWDINTAWVFGGGTQLTVLGQPKAAPSVTLFPPSSEELQANKATLVCLISDFYPGAVTVAWKADSSPVKAGVETTTPSKQSNNKYAASSYLSLTPEQWKSHRSYSCQVTHEGSTVEKTVAPTECS
B2: #R4-53: fully human anti-CHI3L1 mAb, Table 1 No. 33; heavy chain SEQ ID NO: 25, light chain SEQ ID NO: 26 (antibody, listed as Homo sapiens)
VH: QVQLVQSGAEVKKPGASVKVSCKASGYTFTSYYMHWVRQAPGQGLEWMGIINPSGGSTSYAQKFQGRVTMTRDTSTSTVYMELSSLRSEDTAVYYCASDIGDYGDYWGQGTTVTVSS
light: SYVLTQPPSVSVALGQTARITCGGNNIESKIVSWYQQKPGQAPVLVIFYDTDRPSGISERFSGSNSGNTATLTISRVEAGDEADYYCQVWDSNSDHVIFGGGTKLTVLGQPKAAPSVTLFPPSSEELQANKATLVCLISDFYPGAVTVAWKADSSPVKAGVETTTPSKQSNNKYAASSYLSLTPEQWKSHRSYSCQVTHEGSTVEKTVAPTECS
B3: #R4-62: fully human anti-CHI3L1 mAb, Table 1 No. 37; heavy chain SEQ ID NO: 41, light chain SEQ ID NO: 42 (antibody, listed as Homo sapiens)
VH: EVQLVESGGGLVQPGGSLRLSCAASGLTFPNFAMTWVRQTPGKGLQWVSTISGRGDEPFYADSVKGRFTISRDNSKNMVYLHMNSLRAEDTAIYYCAKGGHFSSWDYWGQGTLVTVSS
light: NFMLTQPHSVSESPGKTVTISCTRSSGSIASNYVQWYQQRPDSAPTTVIYEDIERPSGVPDRFSGAIDSSANSASLTISGLQTEDEADYYCQSYDSSSYVFGTGTKVTVLGQPKANPTVTLFPPSSEELQANKATLVCLISDFYPGAVTVAWKADGSPVKAGVETTKPSKQSNNKYAASSYLSLTPEQWKSHRSYSCQVTHEGSTVEKTVAPTECS
B4: #R4-2: fully human anti-CHI3L1 mAb, Table 1 No. 7; heavy chain SEQ ID NO: 1, light chain SEQ ID NO: 2 (antibody, listed as Homo sapiens)
heavy: QVQLVQSGAEVKKPGSSVKVSCKASGGTFSSYAISWVRQAPGQGLEWMGGIIPIFGTANYAQKFQGRVTITADESTSTAYMELSSLRSEDTAVYYCARGDIEYYDILTGYYYYFDYWGQGTLVTVSS
light: SYVLTQPPSVSVAPGKAARVTCGGNDIGSKSVQWYQQKPGQAPVLVISYDNDRPSGIPERFSGSNSGNTATLTISRVEAGDEADYYCQVWDSTSDHYVFGTGTKVTVQGQPKANPTVTLFPPSSEELQANKATLVCLISDFYPGAVTVAWKADSSPVKAGVETTTPSKQSNNKYAASSYLSLTPEQWKSHRSYSCQVTHEGSTVEKTVAPTECS
B5: #R4-63: fully human anti-CHI3L1 mAb, Table 1 No. 38; heavy chain SEQ ID NO: 49, light chain SEQ ID NO: 50 (antibody, listed as Homo sapiens)
VH: EVQLVQSGAEVKKPGATVKISCKVSGYTFTDYYMHWVQQAPGKGLEWMGLVDPEDGETIYAEKFQGRVTITADTSTDTAYMELSSLRSEDTAVYYCATIGRPPDYWGQGTTVTVSS
light: QSVLTQPPSVSAAPGQKVTISCSGSSSNIGNNYVSWYQQLPGTAPKLLIYDNNKRPSGIPDRFSGSKSGTSATLGITGLQTGDEADYYCGTWDSSLSVWVFGGGTKLTVLGQPKAAPSVTLFPPSSEELQANKATLVCLISDFYPGAVTVAWKADSSPVKAGVETTTPSKQSNNKYAASSYLSLTPEQWKSHKSYSCQVTHEGSTVEKTVAPTECS

In this assay the target is T1, CHI3L1 binding to IL-13Rα2 on A549 cell line (Homo sapiens, UniProt P36222).
T1 construct: host or cells: A549 cells carry the receptor
T1 sequence (P36222 22-383): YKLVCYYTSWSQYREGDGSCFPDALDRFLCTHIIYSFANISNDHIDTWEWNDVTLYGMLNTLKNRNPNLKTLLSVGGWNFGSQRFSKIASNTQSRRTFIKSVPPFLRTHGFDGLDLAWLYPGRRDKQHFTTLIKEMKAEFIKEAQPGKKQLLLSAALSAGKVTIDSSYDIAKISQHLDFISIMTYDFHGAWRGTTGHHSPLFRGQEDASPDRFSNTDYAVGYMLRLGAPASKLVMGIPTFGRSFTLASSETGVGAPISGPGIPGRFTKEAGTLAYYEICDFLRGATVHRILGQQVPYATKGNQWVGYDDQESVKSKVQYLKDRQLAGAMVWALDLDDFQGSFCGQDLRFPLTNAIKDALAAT
Description: Functional screen: block of CHI3L1 binding to IL-13Rα2 on A549 cell line. Type of assay: cell-based. The note with it: A549 cells, compared with CHI3L1 only. The text has this: CHI3L1 is known to associate with different receptors, such as IL-13Rα2 (He et al. 2013), CRTH2 (Zhou et al. 2015), TMEM219 (Lee et al. 2016), and galectin-3 (Zhou et al. 2015). […] Therefore, purified antibody leads were functionally screened for their ability to block CHI3L1 binding to IL-13Rα2 on A549 cell line (FIG. 3A). […] The sequences and defied CDR regions among those monoclonal antibodies are listed and summarized in the sequences list (SEQ ID NOs: 1 to 88) and Table 2, respectively. Anti-CHI3L1 clone R4-2 heavy chain (SEQ ID NO: 1), anti-CHI3L1 clone R4-2 light chain (SEQ ID NO: 2), anti-CHI3L1 clone R4-4 heavy chain (SEQ ID NO: 9), anti-CHI3L1 clone R4-4 light chain (SEQ ID NO: 10), anti-CHI3L1 clone R4-39 heavy chain (SEQ ID NO: 17), anti-CHI3L1 clone R4-39 light chain (SEQ ID NO: 18), anti-CHI3L1 clone R4-53 heavy chain (SEQ ID NO: 25), anti-CHI3L1 clone R4-53 light chain (SEQ ID NO: 26), anti-CHI3L1 clone R4-54 heavy chain (SEQ ID NO: 33), anti-CHI3L1 clone R4-54 light chain (SEQ ID NO: 34), anti-CHI3L1 clone R4-62 heavy chain (SEQ ID NO: 41), anti-CHI3L1 clone R4-62 light chain (SEQ ID NO: 42), anti-CHI3L1 clone R4-63 heavy chain (SEQ ID NO: 49), anti-CHI3L1 clone R4-63 light chain (SEQ ID NO: 50), anti-CHI3L1 clone R4-93 heavy chain (SEQ ID NO: 57), anti-CHI3L1 clone R4-93 light chain (SEQ ID NO: 58), anti-CHI3L1 clone 293R3-2 heavy chain (SEQ ID NO: 65), anti-CHI3L1 clone 293R3-2 light chain (SEQ ID NO: 66), anti-CHI3L1 clone 293R3-4 heavy chain (SEQ ID NO: 73), anti-CHI3L1 clone 293R3-4 light chain (SEQ ID NO: 74), anti-CHI3L1 clone 293R3-5 heavy chain (SEQ ID NO: 81), and anti-CHI3L1 clone 293R3-5 light chain (SEQ ID NO: 82) are shown in sequence listing.
As for B1, the CHI3L1 neutralizing activity result is reported as “best neutralizing activity”.
For B2 the value was “best neutralizing activity”; for B3, “best neutralizing activity”.
For B4 the value was “best neutralizing activity”; for B5, “best neutralizing activity”.
